Laboratory results reported in paper PMC6943190.

How the values were obtained:
[1] = target: C11+C661-SecA (Escherichia coli) (UniProt P10408); assay: cross-linking
[2] = target: C403-SecA (Escherichia coli) (UniProt P10408); assay: cross-linking

stoichiometry N [1]	stoichiometry N [2]	Substance
2		C11+C661-SecA (from UniProt P10408 1-901) (enzyme)
	2	C403-SecA (from UniProt P10408 1-901) (enzyme)
